B1: Olfactory receptor 2AG1 (Homo sapiens), Q9H205 (parent)
chain: MELWNFTLGSGFILVGILNDSGSPELLCATITILYLLALISNGLLLLAITMEARLHMPMYLLLGQLSLMDLLFTSVVTPKALADFLRRENTISFGGCALQMFLALTMGGAEDLLLAFMAYDRYVAICHPLTYMTLMSSRACWLMVATSWILASLSALIYTVYTMHYPFCRAQEIRHLLCEIPHLLKVACADTSRYELMVYVMGVTFLIPSLAAILASYTQILLTVLHMPSNEGRKKALVTCSSHLTVVGMFYGAATFMYVLPSSFHSTRQDNIISVFYTIVTPALNPLIYSLRNKEVMRALRRVLGKYMLPAHSTL

Variants of: B1
Conditions: with mpdz_human MPDZ

| Variant | effect of a mutation on the interaction |
| --- | --- |
| MELWNFTLGSGFILVGILNDSGSPELLCATITILYLLALISNGLLLLAITMEARLHMPMYLLLGQLSLMDLLFTSVVTPKALADFLRRENTISFGGCALQMFLALTMGGAEDLLLAFMAYDRYVAICHPLTYMTLMSSRACWLMVATSWILASLSALIYTVYTMHYPFCRAQEIRHLLCEIPHLLKVACADTSRYELMVYVMGVTFLIPSLAAILASYTQILLTVLHMPSNEGRKKALVTCSSHLTVVGMFYGAATFMYVLPSSFHSTRQDNIISVFYTIVTPALNPLIYSLRNKEVMRALRRVLGKYMLPAHWTL [S314W] | disrupting interaction |
| MELWNFTLGSGFILVGILNDSGSPELLCATITILYLLALISNGLLLLAITMEARLHMPMYLLLGQLSLMDLLFTSVVTPKALADFLRRENTISFGGCALQMFLALTMGGAEDLLLAFMAYDRYVAICHPLTYMTLMSSRACWLMVATSWILASLSALIYTVYTMHYPFCRAQEIRHLLCEIPHLLKVACADTSRYELMVYVMGVTFLIPSLAAILASYTQILLTVLHMPSNEGRKKALVTCSSHLTVVGMFYGAATFMYVLPSSFHSTRQDNIISVFYTIVTPALNPLIYSLRNKEVMRALRRVLGKYMLPAHSTW [L316W] | disrupting interaction |

Reference: IntAct's records for PubMed 19909339
